Laboratory results as given in patent publication US20220125947A1.

Assays:
[1] = biological target: Vg9/Vd2 T cell receptor on SKW3_4 cells (AG000003284; CLI000001324 (C3819A)) (UniProt Q99603); test: flow cytometry, DRC binding at 37°C on SKW3_4 cells expressing Vg9/Vd2
[2] = biological target: Vg5/Vd2 T cell receptor on SKW3 cells (AG000003285; CLI000001325 (C3820A)) (UniProt A0JD36); test: flow cytometry, DRC binding at 37°C on SKW3 cells expressing Vg5/Vd2
[3] = biological target: Vg9/Vd1 T cell receptor on SKW3 cells (AG000003287; CLI000001326 (C3821A)) (UniProt Q99603); test: flow cytometry, DRC binding at 37°C on SKW3 cells expressing Vg9/Vd1
[4] = biological target: Vg5/Vd2 T cell receptor on SKW3 cells (UniProt A0JD36); test: flow cytometry, DRC binding 37 C, SKW3 cells expressing Vg5/Vd2
[5] = biological target: Vg9/Vd1 T cell receptor on SKW3 cells (UniProt Q99603); test: flow cytometry, DRC binding 37 C, SKW3 cells expressing Vg9/Vd1
[6] = biological target: Vg9/Vd2 T cell receptor on SKW3_4 cells (UniProt Q99603); test: flow cytometry, DRC binding 37 C, SKW3_4 cells expressing Vg9/Vd2
Sequence of Vg9/Vd2 T cell receptor on SKW3_4 cells (Q99603 21-122, chain 1 of 2): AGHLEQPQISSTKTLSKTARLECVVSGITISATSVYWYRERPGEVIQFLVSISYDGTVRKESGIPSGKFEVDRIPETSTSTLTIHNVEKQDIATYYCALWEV
Sequence of Vg9/Vd2 T cell receptor on SKW3_4 cells (A0JD36 20-115, chain 2 of 2, further chain): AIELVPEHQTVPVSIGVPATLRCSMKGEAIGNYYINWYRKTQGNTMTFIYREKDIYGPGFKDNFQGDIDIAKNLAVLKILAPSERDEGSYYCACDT

Sequence of Vg5/Vd2 T cell receptor on SKW3 cells (A0JD36 20-115): as the sequence (A0JD36 20-115, chain 2 of 2, further chain) above
Sequence of Vg9/Vd1 T cell receptor on SKW3 cells (Q99603 21-122): as the sequence (Q99603 21-122, chain 1 of 2) above
Sequence of Vg5/Vd2 T cell receptor on SKW3 cells (AG000003285; CLI000001325 (C3820A)) (A0JD36 20-115, stated change not applied): as the sequence (A0JD36 20-115, chain 2 of 2, further chain) above
Sequence of Vg9/Vd1 T cell receptor on SKW3 cells (AG000003287; CLI000001326 (C3821A)) (Q99603 21-122, stated change not applied): as the sequence (Q99603 21-122, chain 1 of 2) above
Sequence of Vg9/Vd2 T cell receptor on SKW3_4 cells (AG000003284; CLI000001324 (C3819A)) (Q99603 21-122, chain 1 of 2): as above
Sequence of Vg9/Vd2 T cell receptor on SKW3_4 cells (AG000003284; CLI000001324 (C3819A)) (A0JD36 20-115, chain 2 of 2, further chain): as the sequence (A0JD36 20-115, chain 2 of 2, further chain) above

Row | Max. Activity (fold over background) [1] | Max. Activity (fold over background) [2] | Max. Activity (fold over background) [3] | Max. Activity (fold over background) [4] | Max. Activity (fold over background) [5] | Max. Activity (fold over background) [6] | Binder
1 | 119 | 10.3 | 300 | – | – | – | VG9B195 (antibody, human IgG1, lambda, V domains shown) VH: EVQLVESGGGLVKPGGSLRLSCAASGFTFSPYTMNWVRQAPGKGLEWVSSISSSSSYMYYADSVKGRFTISRDNAKNSLYLQMNSLRAEDTAVYYCARDGDLVGPTYYFDYWGQGTLVTVSS VL: SYELMQPPSVSVSPGQTASITCSGDKLGDKYACWYQQKPGQSPVLVIYQHNKRPSGIPERFSGSNSGKTATLTISGTQAMDEADYYCQAWDSTTVVFGGGTKLTVLG
2 | – | – | – | 11.7 | 0.96 | 11 | VG9B157 (antibody, human IgG1, lambda, V domains shown) VH: EVQLLESGGGLVKPGASLKLSCAASGFTFSNHGMSWVRQTSDKRLEWVASITRGGDTTYYPDNVKGRFTISRENAKNTLYLQMSSLKSDDTALYYCTRGPLTVGYAMDYWGQGTTVTVSS VL: SSELTQDPAVSVALGQTVRITCQGDSLRSYYATWYQQKPGQAPILVIYGENNRPSGIPDRFSGSRSGNTASLTITGAQAEDEADYYCNSRDTGDHHLVFGGGTKLTVLG
3 | – | – | – | 207 | 2.08 | 124 | VG9B68 (antibody, human IgG1, kappa, V domains shown) VH: EVQLVESGAEVKKPGSSVKVSCKASGGTFSTYAISWVRQAPGQGLEWMGGIIPIFGTATYAQRFQDRVMITADKSTTTAYMELSSLRSEDTAVFYCARGVGWGSDYYYGLDVWGQGTMVTVSS VL: EIVMTQSPLSSPVTLGQPASISCRSSQSLVHSDGNTYLSWLQQRPGQSPRLLIYKISNRFSGVPDRFSGSGAGTDFTLRITRVEPEDVGVYYCIQATHHPLTFGGGTRLEIKR
